T1: FcγRIIa R (human, UniProt P12318 34-217)
T1 construct: extracellular domain; also called FcgRIIa R type; 2aR
T1 sequence (looked up): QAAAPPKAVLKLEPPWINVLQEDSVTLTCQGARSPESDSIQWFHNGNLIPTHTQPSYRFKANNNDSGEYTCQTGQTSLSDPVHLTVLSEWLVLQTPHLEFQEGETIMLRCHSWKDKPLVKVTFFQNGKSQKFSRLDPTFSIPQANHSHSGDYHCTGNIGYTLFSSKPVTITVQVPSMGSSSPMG

T2: FcγRIIb (human, UniProt P31994 43-217)
T2 construct: extracellular domain; also called FcgRIIb; 2b
T2 sequence (looked up): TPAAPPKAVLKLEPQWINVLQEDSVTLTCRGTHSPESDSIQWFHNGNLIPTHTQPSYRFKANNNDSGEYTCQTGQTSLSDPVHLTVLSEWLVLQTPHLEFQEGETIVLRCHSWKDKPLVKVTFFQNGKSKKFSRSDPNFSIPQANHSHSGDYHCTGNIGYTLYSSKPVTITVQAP

T3: FcγRIIb extracellular domain with C-terminal His tag (human, UniProt P31994 43-217)
T3 construct: extracellular domain; also called FcgRIIb; 2b; not shown: His tag at the C terminus
T3 sequence (looked up): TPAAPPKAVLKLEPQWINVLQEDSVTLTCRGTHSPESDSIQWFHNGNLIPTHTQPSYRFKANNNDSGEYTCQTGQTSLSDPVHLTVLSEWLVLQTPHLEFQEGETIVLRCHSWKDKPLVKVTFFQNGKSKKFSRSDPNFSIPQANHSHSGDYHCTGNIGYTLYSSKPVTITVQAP


Columns and labels:
[1] = molecular target: T1, FcγRIIa R; experiment: SPR; He/Con_2aR divided by He/Con_2b (FcγRIIb as reference)
[2] = molecular target: T2, FcγRIIb; experiment: SPR (Biacore), antibody captured, FcγR as analyte; relative binding
[3] = molecular target: T1, FcγRIIa R; experiment: as above
[4] = molecular target: T3, FcγRIIb extracellular domain with …; experiment: SPR (Biacore), captured antibody, FcγR as analyte; relative to GpH7-A5/GpH7-B3/GpL16-k0 = 100
Method: (§1) Analysis of interaction between objective antibody and the FcγR was carried out using Biacore T100 (GE Healthcare). HBS-EP+ (GE Healthcare) was used as the running buffer, and the measurement temperature was set to 25° C. Chips produced by immobilizing the antigen peptide by the amine coupling method to a Series S Sencor Chip CM5 (GE Healthcare), or alternatively, chips produced by allowing preliminarily biotinylated antigen peptides to interact with and immobilize onto a Series S Sensor Chip SA (certified) (GE Healthcare) were used. Antibodies of interest were captured onto an antigen peptide-immobilized chip, and allowed to interact to each FcγR diluted with running buffer. To regenerate and repeatedly use the chip, the antibodies captured on the chip were washed off by reacting 10 mM glycine-HCl, pH 1.5.
(§2) The FcγR-binding activity of each antibody was assessed primarily using as an indicator the FcγR-binding activity and dissociation constant for FcγR.

[5] = molecular target: T4, FcγRIIIa extracellular domain with C-terminal His tag (human, UniProt P08637 17-208); experiment: as above
T4 construct: extracellular domain; also called FcgRIIIa; 3a; not shown: His tag at the C terminus
Method: as §1, §2

T4 sequence (P08637 17-208): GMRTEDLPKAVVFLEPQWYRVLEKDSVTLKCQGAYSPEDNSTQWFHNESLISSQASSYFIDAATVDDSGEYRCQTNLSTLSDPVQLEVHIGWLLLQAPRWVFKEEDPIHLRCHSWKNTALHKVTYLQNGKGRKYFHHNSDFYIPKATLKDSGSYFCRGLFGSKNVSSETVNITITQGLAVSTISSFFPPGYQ

Binder	IIaR/IIb (He_2aR/2b) [1] [ratio]	He/Con_2b (IIb binding) [2]	He/Con_2aR (IIaR binding) [3]	He/Con_2b (IIb binding) [4]	He/Con_3a (IIIa binding) [5]
GpH7-A5/GpH7-B3 variant S298_09D/GpL16-k0 (antibody, human IgG1, kappa, heterodimerized antibody, mutation in the GpH7-B3 chain only; also called He Ab) heavy 1: not shown heavy 2: not shown light: DIVMTQSPLSLPVTPGEPASISCQASESLVHSNRNTYLHWYLQKPGQSPQLLIYKVSNRFSGVPDRFSGSGSGTDFTLKISRVEAEDVGVYYCSQNTHVPPTFGQGTKVEIERTVAAPSVFIFPPSDEQLKSGTASVVCLLNNFYPREAKVQWKVDNALQSGNSQESVTEQDSKDSTYSLSSTLTLSKADYEKHKVYACEVTHQGLSSPVTKSFNRGEC	1.4	48.3 % of GpH7-A5/GpH7-B3/GpL16-k0 (=100)	67.8 % of GpH7-A5/GpH7-B3/GpL16-k0 (=100)	–	–
GpH7-A5/GpH7-B3 variant P238_03V/GpL16-k0 (heterodimerized antibody, He Ab) (antibody, human IgG1, kappa, Anti-glypican-3 IgG1; the alteration is in the GpH7-B3 chain only; also called P238V) heavy 1: not shown heavy 2: not shown light: DIVMTQSPLSLPVTPGEPASISCQASESLVHSNRNTYLHWYLQKPGQSPQLLIYKVSNRFSGVPDRFSGSGSGTDFTLKISRVEAEDVGVYYCSQNTHVPPTFGQGTKVEIERTVAAPSVFIFPPSDEQLKSGTASVVCLLNNFYPREAKVQWKVDNALQSGNSQESVTEQDSKDSTYSLSSTLTLSKADYEKHKVYACEVTHQGLSSPVTKSFNRGEC	–	–	–	120 % of HeCon Ab	43.8 % of HeCon Ab
GpH7-A5/GpH7-B3 variant Y296_01G/GpL16-k0 (antibody, human IgG1, kappa, heterodimerized antibody, mutation in the GpH7-B3 chain only; also called He Ab) heavy 1: not shown heavy 2: not shown light: DIVMTQSPLSLPVTPGEPASISCQASESLVHSNRNTYLHWYLQKPGQSPQLLIYKVSNRFSGVPDRFSGSGSGTDFTLKISRVEAEDVGVYYCSQNTHVPPTFGQGTKVEIERTVAAPSVFIFPPSDEQLKSGTASVVCLLNNFYPREAKVQWKVDNALQSGNSQESVTEQDSKDSTYSLSSTLTLSKADYEKHKVYACEVTHQGLSSPVTKSFNRGEC	1.21	79.3 % of GpH7-A5/GpH7-B3/GpL16-k0 (=100)	95.8 % of GpH7-A5/GpH7-B3/GpL16-k0 (=100)	–	–
GpH7-A5/GpH7-B3 variant G237_05P/GpL16-k0 (heterodimerized antibody, He Ab) (antibody, human IgG1, kappa, Anti-glypican-3 IgG1; the alteration is in the GpH7-B3 chain only; also called G237P) heavy 1: not shown heavy 2: not shown light: DIVMTQSPLSLPVTPGEPASISCQASESLVHSNRNTYLHWYLQKPGQSPQLLIYKVSNRFSGVPDRFSGSGSGTDFTLKISRVEAEDVGVYYCSQNTHVPPTFGQGTKVEIERTVAAPSVFIFPPSDEQLKSGTASVVCLLNNFYPREAKVQWKVDNALQSGNSQESVTEQDSKDSTYSLSSTLTLSKADYEKHKVYACEVTHQGLSSPVTKSFNRGEC	–	–	–	24.6 % of HeCon Ab	10.9 % of HeCon Ab
GpH7-A5/GpH7-B3 variant Y296_03V/GpL16-k0 (antibody, human IgG1, kappa, heterodimerized antibody, mutation in the GpH7-B3 chain only; also called He Ab) heavy 1: not shown heavy 2: not shown light: DIVMTQSPLSLPVTPGEPASISCQASESLVHSNRNTYLHWYLQKPGQSPQLLIYKVSNRFSGVPDRFSGSGSGTDFTLKISRVEAEDVGVYYCSQNTHVPPTFGQGTKVEIERTVAAPSVFIFPPSDEQLKSGTASVVCLLNNFYPREAKVQWKVDNALQSGNSQESVTEQDSKDSTYSLSSTLTLSKADYEKHKVYACEVTHQGLSSPVTKSFNRGEC	1.21	79.3 % of GpH7-A5/GpH7-B3/GpL16-k0 (=100)	96.2 % of GpH7-A5/GpH7-B3/GpL16-k0 (=100)	–	–
GpH7-A5/GpH7-B3 variant G236_10E/GpL16-k0 (heterodimerized antibody, He Ab) (antibody, human IgG1, kappa, Anti-glypican-3 IgG1; the alteration is in the GpH7-B3 chain only; also called G236E) heavy 1: not shown heavy 2: not shown light: DIVMTQSPLSLPVTPGEPASISCQASESLVHSNRNTYLHWYLQKPGQSPQLLIYKVSNRFSGVPDRFSGSGSGTDFTLKISRVEAEDVGVYYCSQNTHVPPTFGQGTKVEIERTVAAPSVFIFPPSDEQLKSGTASVVCLLNNFYPREAKVQWKVDNALQSGNSQESVTEQDSKDSTYSLSSTLTLSKADYEKHKVYACEVTHQGLSSPVTKSFNRGEC	–	–	–	110 % of HeCon Ab	70.7 % of HeCon Ab
GpH7-A5/GpH7-B3 variant Y296_05P/GpL16-k0 (antibody, human IgG1, kappa, heterodimerized antibody, mutation in the GpH7-B3 chain only; also called He Ab) heavy 1: not shown heavy 2: not shown light: DIVMTQSPLSLPVTPGEPASISCQASESLVHSNRNTYLHWYLQKPGQSPQLLIYKVSNRFSGVPDRFSGSGSGTDFTLKISRVEAEDVGVYYCSQNTHVPPTFGQGTKVEIERTVAAPSVFIFPPSDEQLKSGTASVVCLLNNFYPREAKVQWKVDNALQSGNSQESVTEQDSKDSTYSLSSTLTLSKADYEKHKVYACEVTHQGLSSPVTKSFNRGEC	1.3	36.6 % of GpH7-A5/GpH7-B3/GpL16-k0 (=100)	47.7 % of GpH7-A5/GpH7-B3/GpL16-k0 (=100)	–	–
GpH7-A5/GpH7-B3 variant Y296_12R/GpL16-k0 (antibody, human IgG1, kappa, heterodimerized antibody, mutation in the GpH7-B3 chain only; also called He Ab) heavy 1: not shown heavy 2: not shown light: DIVMTQSPLSLPVTPGEPASISCQASESLVHSNRNTYLHWYLQKPGQSPQLLIYKVSNRFSGVPDRFSGSGSGTDFTLKISRVEAEDVGVYYCSQNTHVPPTFGQGTKVEIERTVAAPSVFIFPPSDEQLKSGTASVVCLLNNFYPREAKVQWKVDNALQSGNSQESVTEQDSKDSTYSLSSTLTLSKADYEKHKVYACEVTHQGLSSPVTKSFNRGEC	1.25	79.5 % of GpH7-A5/GpH7-B3/GpL16-k0 (=100)	99.6 % of GpH7-A5/GpH7-B3/GpL16-k0 (=100)	–	–
